B1: Protein ERGIC-53 (Homo sapiens), P49257 (parent)
chain: MAGSRQRGLRARVRPLFCALLLSLGRFVRGDGVGGDPAVALPHRRFEYKYSFKGPHLVQSDGTVPFWAHAGNAIPSSDQIRVAPSLKSQRGSVWTKTKAAFENWEVEVTFRVTGRGRIGADGLAIWYAENQGLEGPVFGSADLWNGVGIFFDSFDNDGKKNNPAIVIIGNNGQIHYDHQNDGASQALASCQRDFRNKPYPVRAKITYYQNTLTVMINNGFTPDKNDYEFCAKVENMIIPAQGHFGISAATGGLADDHDVLSFLTFQLTEPGKEPPTPDKEISEKEKEKYQEEFEHFQQELDKKKEEFQKGHPDLQGQPAEEIFESVGDRELRQVFEGQNRIHLEIKQLNRQLDMILDEQRRYVSSLTEEISKRGAGMPGQHGQITQQELDTVVKTQHEILRQVNEMKNSMSETVRLVSGMQHPGSAGGVYETTQHFIDIKEHLHIVKRDIDNLVQRNMPSNEKPKCPELPPFPSCLSTVHFIIFVVVQTVLFIGYIMYRSQQEAAAKKFF
partner: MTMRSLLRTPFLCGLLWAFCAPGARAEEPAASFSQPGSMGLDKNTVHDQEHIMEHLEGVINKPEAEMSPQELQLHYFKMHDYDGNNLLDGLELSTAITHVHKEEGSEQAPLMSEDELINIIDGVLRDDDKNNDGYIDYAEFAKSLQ

Variants of: B1
Details: with mcfd2_human MCFD2, Q8NI22

**Q.** Which “effect of a mutation on the interaction” value does the source give for W67S here?
**A.** The value was “disrupting interaction strength”.
